Measured values: the supplement of paper PMC9732359
± gives the uncertainty stated by the source.

Assay: protein stability index of a GFP-peptide fusion (yeast GPS) (PSI 1-4); higher = more stable; sorted into four equal gates, so the index is relative within each strain
In short: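 Yeast carrying a pooled library were grown to mid-log phase in leucine-free medium. Each library plasmid expresses Cherry and has a tiled 17-residue yeast protein peptide fused downstream of GFP. Cells were sorted into four equal gates by GFP/Cherry ratio, and plasmids from each gate were PCR-amplified, Illumina-sequenced and assigned to strains by barcode. Summing, across gates, the read frequency times the gate number gave each peptide's protein stability index.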

Sequence	protein stability index (doa10∆)	protein stability index (pdr5∆)	protein stability index (san1∆)	protein stability index (ubr1∆)
NFPDEDDDDSRKSAPVD [SKP1]	3.09 ± 0.046	3.2 ± 0.047	3.31 ± 0.04	3.27 ± 0.041
LVFCKHITSVPISAVLR [GRR1]	1.61 ± 0.053	1.72 ± 0.05	1.92 ± 0.088	1.71 ± 0.042
IFNSGKMIILDKLLKRL [ISW2]	2.17 ± 0.077	1.93 ± 0.055	1.55 ± 0.1	2.17 ± 0.046
SPPIIDLFSNNNYNSRI [MED1]	2.86 ± 0.071	2.92 ± 0.076	2.86 ± 0.062	2.94 ± 0.056
TGYPDEPPAGVALPPGS [CYT1]	2.84 ± 0.13	2.92 ± 0.11	2.65 ± 0.11	2.95 ± 0.067
QNRRLAFEELEGSWDRG [PRP8]	2.91 ± 0.17	3.31 ± 0.17	3.24 ± 0.15	3.31 ± 0.16
NKLLGNVTIAQGGVLPN [HTA1]	1.82 ± 0.053	1.66 ± 0.041	1.72 ± 0.058	1.61 ± 0.033
PGTTSTGNNNNIATQQN [GAL11]	2.03 ± 0.052	2.69 ± 0.081	2.77 ± 0.085	2.73 ± 0.056
IVISLKNTMFEKSDALV [SMC1]	2.42 ± 0.071	2.36 ± 0.062	2.55 ± 0.059	2.47 ± 0.042
LSDVAFYVQDVYKDNLS [RPO31]	1.8 ± 0.12	1.7 ± 0.12	–	1.22 ± 0.14
GGQIAHILFQNNPDMMI [ROX3]	2.54 ± 0.041	2.63 ± 0.046	2.59 ± 0.052	2.97 ± 0.046
GLRAVRKNRYVILQSDL [RPT3]	3.05 ± 0.081	3.06 ± 0.1	3.05 ± 0.08	3.31 ± 0.14
MNIIQQQQQQNTNNNDT [GAL11]	2.43 ± 0.042	2.63 ± 0.047	2.46 ± 0.044	2.52 ± 0.04
MALNKVLITDHIEKLEN [CDC53]	2.52 ± 0.053	2.14 ± 0.047	2.15 ± 0.059	2.28 ± 0.052
NTSSLQSFQNPFTASQS [YIL149C/MLP2]	2.36 ± 0.05	2.02 ± 0.038	2.45 ± 0.048	2.36 ± 0.034
HLCSGILSSVNRTVLLK [SRB8]	1.42 ± 0.073	1.67 ± 0.15	1.41 ± 0.17	1.67 ± 0.047
GSQILSGVMDKSVLGDG [RPO31]	3.49 ± 0.12	3.28 ± 0.12	3.41 ± 0.068	3.55 ± 0.067
VPSPTGEYVKEPEWVLE [RPO21]	3 ± 0.11	3.07 ± 0.12	2.85 ± 0.28	3.15 ± 0.062
LKVRKGHIAKLMATEYQ [RPB2]	2.52 ± 0.14	2.33 ± 0.13	1.28 ± 0.19	1.86 ± 0.057
AFIFGLQDELKELQLEK [SMC3]	3.23 ± 0.12	3.47 ± 0.11	3.11 ± 0.12	3.54 ± 0.19
QIIQRDKINKYSLIRET [SNF5]	1.39 ± 0.093	1.3 ± 0.13	–	1.15 ± 0.2
GHIPWHILAVKKMMNTL [SSN2]	2.45 ± 0.065	2.85 ± 0.098	2.74 ± 0.1	1.1 ± 0.16
RVHDQPLIWQLLQSSII [POP3]	1.43 ± 0.062	1.78 ± 0.07	1.66 ± 0.11	1.7 ± 0.028
EISISFDVNNIDMHLIY [YDL116W/NUP84]	1.94 ± 0.082	2.43 ± 0.093	2.02 ± 0.089	2.25 ± 0.057
TNVRLYSLLLASKGIDR [ECM29]	2.13 ± 0.048	2.79 ± 0.087	3.48 ± 0.088	3.33 ± 0.069
KLLSLLRSKTSAGRIES [SIR4]	2.11 ± 0.082	2.17 ± 0.087	2.42 ± 0.15	2.36 ± 0.12

Sequence	protein stability index (doa10∆)	protein stability index (pdr5∆)	protein stability index (san1∆)	protein stability index (ubr1∆)
MVMFMHMAKGLYYGSYR [COB]	1.18 ± 0.086	1.16 ± 0.13	1.75 ± 0.22	1.13 ± 0.072
DKDNPVDSRNETDHKTN [SRB4]	3.38 ± 0.14	2.85 ± 0.15	2.88 ± 0.086	3.3 ± 0.18
SDKPSLPSAVDGENDKK [YLR335W/NUP2]	3.4 ± 0.08	3.42 ± 0.086	3.37 ± 0.071	3.35 ± 0.11
EDLKNFIFQIIEITNSN [SRB8]	1.96 ± 0.075	2.1 ± 0.056	2.23 ± 0.086	1.79 ± 0.05
ASAGSKEGASTNWDDHA [YMR153W/NUP53]	3.26 ± 0.13	3.49 ± 0.14	3.27 ± 0.077	3.42 ± 0.11
PNGTKKAYVRLTADYDA [RPL25]	–	–	3.07 ± 0.16	3.34 ± 0.15
LVEARSLGHQTSLITAV [MTR3]	2.69 ± 0.08	1.97 ± 0.067	2.79 ± 0.082	1.25 ± 0.064
TNEFVGSPSLTSPQYIP [NUT1]	2.85 ± 0.057	3.04 ± 0.043	3.06 ± 0.035	2.93 ± 0.032
QLFSTFDRLNGNDTISK [SSN2]	3.03 ± 0.15	3.02 ± 0.087	3.19 ± 0.076	2.96 ± 0.048
NFGGGNNTTPSSTGNAN [YJL041W/NSP1]	2.05 ± 0.058	2.02 ± 0.055	1.73 ± 0.079	3.06 ± 0.071
RVNLSENTPEPDLPALE [SMC4]	2.26 ± 0.091	2.32 ± 0.074	3.1 ± 0.086	2.83 ± 0.11
SKDELREKLAEVYKAEK [RPS24A]	3.51 ± 0.16	3.48 ± 0.15	3.59 ± 0.08	3.56 ± 0.16
EKLKQFSWISVVNDLVG [SIR3]	1.61 ± 0.052	1.99 ± 0.058	1.53 ± 0.08	1.55 ± 0.034
KVLINDQLSTISMILRN [SWI1]	2.28 ± 0.047	2.79 ± 0.062	2.17 ± 0.07	2.68 ± 0.042
IRINDEPILGQITLTFI [YML103C/NUP188]	2.21 ± 0.067	2.64 ± 0.05	1.57 ± 0.073	2.25 ± 0.048
ENEVSDIDVTIVSKEYE [ESC2]	3.08 ± 0.13	2.19 ± 0.098	3.09 ± 0.081	1.96 ± 0.066
SDGEDGHIPWHILAVKK [SSN2]	3.02 ± 0.11	2.97 ± 0.15	3.23 ± 0.1	3.16 ± 0.15
KNNSSIRNVIMSASNAN [SRB8]	1.59 ± 0.037	2.13 ± 0.053	1.88 ± 0.095	1.75 ± 0.044
AINLMGVKNNLLTPKSG [RPO31]	3.11 ± 0.13	2.76 ± 0.12	2.76 ± 0.13	2.63 ± 0.11
EIENLDKELRKTKFQYK [YIL149C/MLP2]	2.73 ± 0.081	3.02 ± 0.086	3.07 ± 0.067	2.92 ± 0.074
NDKLIVDNDNWVYKTKG [RPN1]	2.81 ± 0.14	2.77 ± 0.18	3.18 ± 0.28	–
LSSYQKKIIKCDEHMGL [PRE5]	2.19 ± 0.1	2.37 ± 0.13	2.19 ± 0.21	2.71 ± 0.22
VLKTLEYKLATYGVPGS [NUT1]	2.75 ± 0.068	2.54 ± 0.066	3.27 ± 0.045	2.18 ± 0.08
TQTYMQMIELNRQICLV [GRR1]	2.35 ± 0.13	1.44 ± 0.073	1.35 ± 0.19	1.25 ± 0.047
QLKYDTSVQEKELMLQS [YIL149C/MLP2]	2.23 ± 0.11	2.88 ± 0.17	2.81 ± 0.1	2.53 ± 0.12
